The values that follow come from IntAct's records for PubMed 26688217.

Sequences and labels used below:
B1: SUN domain-containing protein 2 (Mus musculus), Q8BJS4-3 (parent)
chain: MSRRSQRLTRYSQDDNDGGSSSSGASSVAGSQGTVFKDSPLRTLKRKSSNMKHLSPAPQLGPSSDSHTSYYSESVVRESYIGSPRAVSLARSALLDDHLHSEPYWSGDLRGRRRRGTGGSESSKANGLTAESKASEDFFGSSSGYSSEDDLAGRLFGLLYWWIGTTWYRLTTAASLLDVFVLTRSRHFSLNLKSFLWFLLLLLLLTGLTYGAWHFYPLGLQTLQPAVVSWWAAKESRKQPEVWESRDASQHFQAEQRVLSRVHSLERRLEALAADFSSNWQKEAIRLERLELRQGAAGHGGGSSLSHEDALSLLEGLVSRREATLKEDLRRDTVAHIQEELATLRAEHHQDSEDLFKKIVQASQESEARVQQLKTEWKSMTQEAFQESSVKELGRLEAQLASLRQELAALTLKQNSVADEVGLLPQKIQAARADVESQFPDWIRQFLLGDRGARSGLLQRDEMHAQLQELENKILTKMAEMQGKSAREAAASLGQILQKEGIVGVTEEQVHRIVKQALQRYSEDRIGMVDYALESGGASVISTRCSETYETKTALLSLFGIPLWYHSQSPRVILQPDVHPGNCWAFQGPQGFAVVRLSARIRPTAVTLEHVPKALSPNSTISSAPKDFAIFGFDEDLQQEGTLLGTFAYDQDGEPIQTFYFQASKMATYQVVELRILTNWGHPEYTCIYRFRVHGEPAH

The variants in this test derive from B1. The conditions noted are these: with Syne2, Q6ZWQ0-1.
Regarding L400A;L403A, the “effect of a mutation on the interaction” value is given as “disrupting interaction strength”.
